# Assay results as given in patent US20140087995A1 (published 2014).
# Numbered stars: 1 amine (or outer) side, 2 acyl side, 3 side chain; on linkers, the order of the positions; unused ones are H or OH. Bridge positions count the residues as written; N and C are the ends. Side chains are listed from the residue outwards. Ends that are not written are not given here. * marks the point of attachment. C20 diacid = O=C(O)CCCCCCCCCCCCCCCCCCC(=O)*; γGlu = O=C(O)[C@H](CCC(=O)[*:2])N[*:1]
# T1: human amylin receptor (human, UniProt P30988 25-474; O60896 24-148, limits assumed)
# T1 construct: whole, on cells; Calcitonin receptor plus RAMP-3 gives the amylin 3(a) receptor; membranes of Amylin 3(a)/CRE-luc cells were used; also called hAmylin-R; hAmylinR
# T1 sequence (looked up) 1: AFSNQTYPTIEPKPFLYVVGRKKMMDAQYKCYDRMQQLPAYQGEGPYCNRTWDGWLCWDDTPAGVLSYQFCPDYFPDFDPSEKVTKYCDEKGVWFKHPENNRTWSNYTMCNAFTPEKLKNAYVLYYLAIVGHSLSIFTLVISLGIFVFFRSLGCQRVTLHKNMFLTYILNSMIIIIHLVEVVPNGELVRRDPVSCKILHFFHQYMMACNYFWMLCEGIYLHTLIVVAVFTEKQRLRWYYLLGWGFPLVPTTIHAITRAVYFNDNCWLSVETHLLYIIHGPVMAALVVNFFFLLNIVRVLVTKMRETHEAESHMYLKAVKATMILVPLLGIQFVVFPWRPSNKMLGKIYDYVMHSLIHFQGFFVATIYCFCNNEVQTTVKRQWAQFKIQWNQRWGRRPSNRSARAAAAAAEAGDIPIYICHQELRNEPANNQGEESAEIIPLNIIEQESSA
# T1 sequence (looked up) 2: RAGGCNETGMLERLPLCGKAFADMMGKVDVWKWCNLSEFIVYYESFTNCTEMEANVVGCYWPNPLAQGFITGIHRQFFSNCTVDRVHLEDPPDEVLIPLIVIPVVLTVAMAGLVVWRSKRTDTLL
# B1: N^ε1-[(4S)-4-carboxy-4-[[(4S)-4-carboxy-4-(19-carboxynonadecanoylamino)butanoyl]amino]butanoyl]-[Glu14,Arg17,Pro21,Pro27,His34,Glu35]-h-amylin (peptide)
# peptide: K([γGlu-γGlu-C20 diacid])CNTATCATQRLAEFLRHSSPNFGAIPSSTNVGHETY-NH2
# modifications: disulfide 2-7; N-terminus assumed
# SMILES: CC[C@H](C)[C@H](NC(=O)[C@H](C)NC(=O)CNC(=O)[C@H](Cc1ccccc1)NC(=O)[C@H](CC(N)=O)NC(=O)[C@@H]1CCCN1C(=O)[C@H](CO)NC(=O)[C@H](CO)NC(=O)[C@H](Cc1c[nH]cn1)NC(=O)[C@H](CCCNC(=N)N)NC(=O)[C@H](CC(C)C)NC(=O)[C@H](Cc1ccccc1)NC(=O)[C@H](CCC(=O)O)NC(=O)[C@H](C)NC(=O)[C@H](CC(C)C)NC(=O)[C@H](CCCNC(=N)N)NC(=O)[C@H](CCC(N)=O)NC(=O)[C@@H](NC(=O)[C@H](C)NC(=O)[C@@H]1CSSC[C@H](NC(=O)[C@@H](N)CCCCNC(=O)CC[C@H](NC(=O)CC[C@H](NC(=O)CCCCCCCCCCCCCCCCCCC(=O)O)C(=O)O)C(=O)O)C(=O)N[C@@H](CC(N)=O)C(=O)N[C@@H]([C@@H](C)O)C(=O)N[C@@H](C)C(=O)N[C@@H]([C@@H](C)O)C(=O)N1)[C@@H](C)O)C(=O)N1CCC[C@H]1C(=O)N[C@@H](CO)C(=O)N[C@@H](CO)C(=O)N[C@H](C(=O)N[C@@H](CC(N)=O)C(=O)N[C@H](C(=O)NCC(=O)N[C@@H](Cc1c[nH]cn1)C(=O)N[C@@H](CCC(=O)O)C(=O)N[C@H](C(=O)N[C@@H](Cc1ccc(O)cc1)C(N)=O)[C@@H](C)O)C(C)C)[C@@H](C)O
# notes: also called 14E, 17R, 21P, 27P, 34H, 35E
# B2: N^ε1-[(4S)-4-carboxy-4-[[(4S)-4-carboxy-4-(19-carboxynonadecanoylamino)butanoyl]amino]butanoyl]-[Glu14,Arg17,Pro21,Pro27,His34]-h-amylin (peptide)
# peptide: K([γGlu-γGlu-C20 diacid])CNTATCATQRLAEFLRHSSPNFGAIPSSTNVGHNTY-NH2
# modifications: disulfide 2-7; N-terminus assumed
# SMILES: CC[C@H](C)[C@H](NC(=O)[C@H](C)NC(=O)CNC(=O)[C@H](Cc1ccccc1)NC(=O)[C@H](CC(N)=O)NC(=O)[C@@H]1CCCN1C(=O)[C@H](CO)NC(=O)[C@H](CO)NC(=O)[C@H](Cc1c[nH]cn1)NC(=O)[C@H](CCCNC(=N)N)NC(=O)[C@H](CC(C)C)NC(=O)[C@H](Cc1ccccc1)NC(=O)[C@H](CCC(=O)O)NC(=O)[C@H](C)NC(=O)[C@H](CC(C)C)NC(=O)[C@H](CCCNC(=N)N)NC(=O)[C@H](CCC(N)=O)NC(=O)[C@@H](NC(=O)[C@H](C)NC(=O)[C@@H]1CSSC[C@H](NC(=O)[C@@H](N)CCCCNC(=O)CC[C@H](NC(=O)CC[C@H](NC(=O)CCCCCCCCCCCCCCCCCCC(=O)O)C(=O)O)C(=O)O)C(=O)N[C@@H](CC(N)=O)C(=O)N[C@@H]([C@@H](C)O)C(=O)N[C@@H](C)C(=O)N[C@@H]([C@@H](C)O)C(=O)N1)[C@@H](C)O)C(=O)N1CCC[C@H]1C(=O)N[C@@H](CO)C(=O)N[C@@H](CO)C(=O)N[C@H](C(=O)N[C@@H](CC(N)=O)C(=O)N[C@H](C(=O)NCC(=O)N[C@@H](Cc1c[nH]cn1)C(=O)N[C@@H](CC(N)=O)C(=O)N[C@H](C(=O)N[C@@H](Cc1ccc(O)cc1)C(N)=O)[C@@H](C)O)C(C)C)[C@@H](C)O
# notes: also called 14E, 17R, 21P, 27P, 34H
# B3: N^ε1-[(4S)-4-carboxy-4-[[(4S)-4-carboxy-4-(19-carboxynonadecanoylamino)butanoyl]amino]butanoyl]-[Glu14,Arg17,Pro21,Pro27,Pro34,Arg35]-h-amylin (peptide)
# peptide: K([γGlu-γGlu-C20 diacid])CNTATCATQRLAEFLRHSSPNFGAIPSSTNVGPRTY-NH2
# modifications: disulfide 2-7; N-terminus assumed
# SMILES: CC[C@H](C)[C@H](NC(=O)[C@H](C)NC(=O)CNC(=O)[C@H](Cc1ccccc1)NC(=O)[C@H](CC(N)=O)NC(=O)[C@@H]1CCCN1C(=O)[C@H](CO)NC(=O)[C@H](CO)NC(=O)[C@H](Cc1c[nH]cn1)NC(=O)[C@H](CCCNC(=N)N)NC(=O)[C@H](CC(C)C)NC(=O)[C@H](Cc1ccccc1)NC(=O)[C@H](CCC(=O)O)NC(=O)[C@H](C)NC(=O)[C@H](CC(C)C)NC(=O)[C@H](CCCNC(=N)N)NC(=O)[C@H](CCC(N)=O)NC(=O)[C@@H](NC(=O)[C@H](C)NC(=O)[C@@H]1CSSC[C@H](NC(=O)[C@@H](N)CCCCNC(=O)CC[C@H](NC(=O)CC[C@H](NC(=O)CCCCCCCCCCCCCCCCCCC(=O)O)C(=O)O)C(=O)O)C(=O)N[C@@H](CC(N)=O)C(=O)N[C@@H]([C@@H](C)O)C(=O)N[C@@H](C)C(=O)N[C@@H]([C@@H](C)O)C(=O)N1)[C@@H](C)O)C(=O)N1CCC[C@H]1C(=O)N[C@@H](CO)C(=O)N[C@@H](CO)C(=O)N[C@H](C(=O)N[C@@H](CC(N)=O)C(=O)N[C@H](C(=O)NCC(=O)N1CCC[C@H]1C(=O)N[C@@H](CCCNC(=N)N)C(=O)N[C@H](C(=O)N[C@@H](Cc1ccc(O)cc1)C(N)=O)[C@@H](C)O)C(C)C)[C@@H](C)O
# notes: also called 14E, 17R, 21P, 27P, 34P, 35R
# B4: N^ε1-[(4S)-4-carboxy-4-[[(4S)-4-carboxy-4-(19-carboxynonadecanoylamino)butanoyl]amino]butanoyl]-[Glu14,Arg17,Pro21,Pro27,Pro34,Glu35]-h-amylin (peptide)
# peptide: K([γGlu-γGlu-C20 diacid])CNTATCATQRLAEFLRHSSPNFGAIPSSTNVGPETY-NH2
# modifications: disulfide 2-7; N-terminus assumed
# SMILES: CC[C@H](C)[C@H](NC(=O)[C@H](C)NC(=O)CNC(=O)[C@H](Cc1ccccc1)NC(=O)[C@H](CC(N)=O)NC(=O)[C@@H]1CCCN1C(=O)[C@H](CO)NC(=O)[C@H](CO)NC(=O)[C@H](Cc1c[nH]cn1)NC(=O)[C@H](CCCNC(=N)N)NC(=O)[C@H](CC(C)C)NC(=O)[C@H](Cc1ccccc1)NC(=O)[C@H](CCC(=O)O)NC(=O)[C@H](C)NC(=O)[C@H](CC(C)C)NC(=O)[C@H](CCCNC(=N)N)NC(=O)[C@H](CCC(N)=O)NC(=O)[C@@H](NC(=O)[C@H](C)NC(=O)[C@@H]1CSSC[C@H](NC(=O)[C@@H](N)CCCCNC(=O)CC[C@H](NC(=O)CC[C@H](NC(=O)CCCCCCCCCCCCCCCCCCC(=O)O)C(=O)O)C(=O)O)C(=O)N[C@@H](CC(N)=O)C(=O)N[C@@H]([C@@H](C)O)C(=O)N[C@@H](C)C(=O)N[C@@H]([C@@H](C)O)C(=O)N1)[C@@H](C)O)C(=O)N1CCC[C@H]1C(=O)N[C@@H](CO)C(=O)N[C@@H](CO)C(=O)N[C@H](C(=O)N[C@@H](CC(N)=O)C(=O)N[C@H](C(=O)NCC(=O)N1CCC[C@H]1C(=O)N[C@@H](CCC(=O)O)C(=O)N[C@H](C(=O)N[C@@H](Cc1ccc(O)cc1)C(N)=O)[C@@H](C)O)C(C)C)[C@@H](C)O
# notes: also called 14E, 17R, 21P, 27P, 34P, 35E
# B5: N^ε1-[(4S)-4-carboxy-4-[[(4S)-4-carboxy-4-(19-carboxynonadecanoylamino)butanoyl]amino]butanoyl]-[Glu14,Arg17,Pro21,Pro27,Pro37]-h-amylin (peptide)
# peptide: K([γGlu-γGlu-C20 diacid])CNTATCATQRLAEFLRHSSPNFGAIPSSTNVGSNTP-NH2
# modifications: disulfide 2-7; N-terminus assumed
# SMILES: CC[C@H](C)[C@H](NC(=O)[C@H](C)NC(=O)CNC(=O)[C@H](Cc1ccccc1)NC(=O)[C@H](CC(N)=O)NC(=O)[C@@H]1CCCN1C(=O)[C@H](CO)NC(=O)[C@H](CO)NC(=O)[C@H](Cc1c[nH]cn1)NC(=O)[C@H](CCCNC(=N)N)NC(=O)[C@H](CC(C)C)NC(=O)[C@H](Cc1ccccc1)NC(=O)[C@H](CCC(=O)O)NC(=O)[C@H](C)NC(=O)[C@H](CC(C)C)NC(=O)[C@H](CCCNC(=N)N)NC(=O)[C@H](CCC(N)=O)NC(=O)[C@@H](NC(=O)[C@H](C)NC(=O)[C@@H]1CSSC[C@H](NC(=O)[C@@H](N)CCCCNC(=O)CC[C@H](NC(=O)CC[C@H](NC(=O)CCCCCCCCCCCCCCCCCCC(=O)O)C(=O)O)C(=O)O)C(=O)N[C@@H](CC(N)=O)C(=O)N[C@@H]([C@@H](C)O)C(=O)N[C@@H](C)C(=O)N[C@@H]([C@@H](C)O)C(=O)N1)[C@@H](C)O)C(=O)N1CCC[C@H]1C(=O)N[C@@H](CO)C(=O)N[C@@H](CO)C(=O)N[C@H](C(=O)N[C@@H](CC(N)=O)C(=O)N[C@H](C(=O)NCC(=O)N[C@@H](CO)C(=O)N[C@@H](CC(N)=O)C(=O)N[C@H](C(=O)N1CCC[C@H]1C(N)=O)[C@@H](C)O)C(C)C)[C@@H](C)O
# notes: also called 14E, 17R, 21P, 27P, 37P
# B6: N^ε1-[(4S)-4-carboxy-4-[[(4S)-4-carboxy-4-(19-carboxynonadecanoylamino)butanoyl]amino]butanoyl]-[Glu14,Arg17,Pro21,Pro31,Pro34,Glu35]-h-amylin (peptide)
# peptide: K([γGlu-γGlu-C20 diacid])CNTATCATQRLAEFLRHSSPNFGAILSSTPVGPETY-NH2
# modifications: disulfide 2-7 (inferred)
# notes: also called 14E, 17R, 21P, 31P, 34P, 35E
# B7: N^ε1-[(4S)-4-carboxy-4-[[(4S)-4-carboxy-4-(19-carboxynonadecanoylamino)butanoyl]amino]butanoyl]-[His14,Arg17,Pro21,Pro27]-h-amylin (peptide)
# peptide: K([γGlu-γGlu-C20 diacid])CNTATCATQRLAHFLRHSSPNFGAIPSSTNVGSNTY-NH2
# modifications: disulfide 2-7; N-terminus assumed
# SMILES: CC[C@H](C)[C@H](NC(=O)[C@H](C)NC(=O)CNC(=O)[C@H](Cc1ccccc1)NC(=O)[C@H](CC(N)=O)NC(=O)[C@@H]1CCCN1C(=O)[C@H](CO)NC(=O)[C@H](CO)NC(=O)[C@H](Cc1c[nH]cn1)NC(=O)[C@H](CCCNC(=N)N)NC(=O)[C@H](CC(C)C)NC(=O)[C@H](Cc1ccccc1)NC(=O)[C@H](Cc1c[nH]cn1)NC(=O)[C@H](C)NC(=O)[C@H](CC(C)C)NC(=O)[C@H](CCCNC(=N)N)NC(=O)[C@H](CCC(N)=O)NC(=O)[C@@H](NC(=O)[C@H](C)NC(=O)[C@@H]1CSSC[C@H](NC(=O)[C@@H](N)CCCCNC(=O)CC[C@H](NC(=O)CC[C@H](NC(=O)CCCCCCCCCCCCCCCCCCC(=O)O)C(=O)O)C(=O)O)C(=O)N[C@@H](CC(N)=O)C(=O)N[C@@H]([C@@H](C)O)C(=O)N[C@@H](C)C(=O)N[C@@H]([C@@H](C)O)C(=O)N1)[C@@H](C)O)C(=O)N1CCC[C@H]1C(=O)N[C@@H](CO)C(=O)N[C@@H](CO)C(=O)N[C@H](C(=O)N[C@@H](CC(N)=O)C(=O)N[C@H](C(=O)NCC(=O)N[C@@H](CO)C(=O)N[C@@H](CC(N)=O)C(=O)N[C@H](C(=O)N[C@@H](Cc1ccc(O)cc1)C(N)=O)[C@@H](C)O)C(C)C)[C@@H](C)O
# notes: also called 14H, 17R, 21P, 27P
# Target: T1, human amylin receptor
# Test: SPA competition binding, displacement of 125I-rat amylin from membranes with human amylin 3(a) receptor (Assay V)
# How it was run: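 Cell membranes were prepared by homogenisation in Na-HEPES/EDTA buffer, pH 7.4, and stored at −80° C. They were then coupled to SPA beads at 35 ng/μL final and exposed to compounds in assay buffer containing CaCl2, MgCl₂, OA and Tween20. After 120 min at 25° C, plates were counted and IC₅₀ derived.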
row,IC50,Binder
1,0.525 nM,B1
2,0.633 nM,B2
3,0.326 nM,B3
4,0.121 nM,B4
5,0.264 nM,B5
6,0.069 nM,B6
7,0.179 nM,B7
